Measurements as given in US20060134788.

Test system: T1, MJ1 integrase (phage phiFC1) (Enterococcus phage phiFC1)
T1 sequence: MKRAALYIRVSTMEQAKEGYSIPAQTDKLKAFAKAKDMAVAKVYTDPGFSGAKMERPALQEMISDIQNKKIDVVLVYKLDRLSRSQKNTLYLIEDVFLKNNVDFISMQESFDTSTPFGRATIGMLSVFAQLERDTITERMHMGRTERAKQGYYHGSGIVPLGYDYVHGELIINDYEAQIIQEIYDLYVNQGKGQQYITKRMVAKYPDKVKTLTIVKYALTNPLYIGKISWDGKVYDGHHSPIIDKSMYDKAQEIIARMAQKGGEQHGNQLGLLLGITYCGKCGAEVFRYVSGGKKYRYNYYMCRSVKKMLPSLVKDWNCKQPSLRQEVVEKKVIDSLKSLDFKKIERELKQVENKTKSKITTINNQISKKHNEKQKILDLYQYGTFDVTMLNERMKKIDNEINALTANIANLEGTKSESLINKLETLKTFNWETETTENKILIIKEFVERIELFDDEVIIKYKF
Test: cell_activity
Conditions: 396 cells without MJ1, FACS 72 h

| Sequence | activity (fluorescent cells) (attB x attP integration in 293T cells) | activity (fluorescent cells) (attP x attB integration in 293T cells) |
| --- | --- | --- |
| CGGCCATTGAATTAGGGTGTCGAATTTATCAAAGTAGTCAAATCAAATTTGGCAAAGTTACGTCCAGTCAACAAGTCGCTCAACGATTACTCCAAGAGATGAAGGGGCTGCAACAAGAACATTTAATTTGTATTTACTTGAATACCAAGAATGACATTATCCAACAGAAAACGATTTTCAAAGGATCACTGAATCAAAGTATTGCTCATCCACGCGAAATTTTTCGGGAAGCGGTTAAATATTCTTCTGCTCGCATACTATTAGCTCATAATCATCCATCTGGCAATCCG (double strand) [attB 290 bp] | 1240 |  |
| GAAGATCTTGTTCTCGAGCATAGTCTCCTTCAAGTTTTGTTATATCTGATAATAGAGACTTTTCTTTTTGTTGTAAACTATTGATTGACAAATCTGGTCCTCCTTTAAAATATATAATTAATATTGGTTTAATTATACCATTCTATAGGTAAGAACAGTAATATGACCAAATTTAAATATCTTTTTATGCACTAATCAAAGTTTTCCTTACAAGCATTTNTTCAATTACGAGTTGATTTCTTTTATTCAAATGACCATAGACAGCTAGTTCAGATTTTTCGGGTAGCATTAGTAACATATTTGCTAATTCGTATTTGGAGACGATACAGTTTATAGTTTCGTCCTGTGTTACTAATGAGAATCGAACTAGCATTTTTGGGTACATACTTAACATTCTAATCTTTTCAACTACTCCTACATAATTAGTTTTCATAATATCGGCCTCCTAGTAATACAATTATACCGAATGCATGTTCGTATTGTCTATAGGTTTGTATAAATGTAATATTTTAGGTATATGATTTTGTTTATTAGTGTAAATAACACTATGTACCTAAAATTTATATTTAATAATTACCTCATCATCAAATAGTTCTATACGTTCAACAAACTCTTTGATGATAAGGATTTTATTTTCTGTAGTTTCAGTTTCCCAATTAAAAGTTTTTAACGTTTCAAGCTTATTAATTAATGACTCACTTTTGGTACCTTCTAAGTTTGCTATATTGGCAGTTAACGC (double strand) [attP 739 bp] |  | 1240 |
